Values belong to the molecule of their own block, whether it stands above or below them.
Tests used:
[1] = biological target: T1, MBP-PABPN1-HA-(His)6 (mouse); experiment: pull-down; MBP-PABPN1 immobilised on amylose resin and incubated with (His)6-PAP-myc and GST-TTP together; blots with anti-GST and anti-myc quantitated; oligo(A)12 added to some samples
T1 sequence (Q8CCS6 whole entry, looked up): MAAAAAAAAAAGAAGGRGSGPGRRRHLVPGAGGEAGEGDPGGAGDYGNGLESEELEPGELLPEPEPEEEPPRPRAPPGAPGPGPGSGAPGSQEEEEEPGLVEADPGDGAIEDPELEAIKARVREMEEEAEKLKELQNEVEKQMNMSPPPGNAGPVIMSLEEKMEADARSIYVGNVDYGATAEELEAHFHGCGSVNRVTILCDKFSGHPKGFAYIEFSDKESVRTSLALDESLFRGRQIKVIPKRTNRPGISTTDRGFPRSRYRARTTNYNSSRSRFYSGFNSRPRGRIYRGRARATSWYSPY

hexahistidine-PAP-myc = biological target: T2, hexahistidine-PAP-myc (UniProt Q61183-1 1-739); experiment: co-IP; 0.5 µg bacterially expressed GST-TTP construct and 0.5 µg (His)6-PAP-myc with anti-myc agarose in 10 mM Tris pH 7.0, 0.15 M NaCl, 1 mM MgCl2, 0.7 mM ZnCl2, 0.1% NP-40, 4°C overnight; blots with anti-myc and anti-GST; conditions: both partners purified
T2 construct: poly(A) polymerase (PAP), NM_011112, in a pQE expression vector; also called (His)6-PAP-myc; poly(A) polymerase; source: bacterially expressed (E. coli STBL2 or Rosetta(DE3)pLacI), purified; not shown: His6, N-terminal, kept; myc, C-terminal, kept
T2 sequence (Q61183 whole entry): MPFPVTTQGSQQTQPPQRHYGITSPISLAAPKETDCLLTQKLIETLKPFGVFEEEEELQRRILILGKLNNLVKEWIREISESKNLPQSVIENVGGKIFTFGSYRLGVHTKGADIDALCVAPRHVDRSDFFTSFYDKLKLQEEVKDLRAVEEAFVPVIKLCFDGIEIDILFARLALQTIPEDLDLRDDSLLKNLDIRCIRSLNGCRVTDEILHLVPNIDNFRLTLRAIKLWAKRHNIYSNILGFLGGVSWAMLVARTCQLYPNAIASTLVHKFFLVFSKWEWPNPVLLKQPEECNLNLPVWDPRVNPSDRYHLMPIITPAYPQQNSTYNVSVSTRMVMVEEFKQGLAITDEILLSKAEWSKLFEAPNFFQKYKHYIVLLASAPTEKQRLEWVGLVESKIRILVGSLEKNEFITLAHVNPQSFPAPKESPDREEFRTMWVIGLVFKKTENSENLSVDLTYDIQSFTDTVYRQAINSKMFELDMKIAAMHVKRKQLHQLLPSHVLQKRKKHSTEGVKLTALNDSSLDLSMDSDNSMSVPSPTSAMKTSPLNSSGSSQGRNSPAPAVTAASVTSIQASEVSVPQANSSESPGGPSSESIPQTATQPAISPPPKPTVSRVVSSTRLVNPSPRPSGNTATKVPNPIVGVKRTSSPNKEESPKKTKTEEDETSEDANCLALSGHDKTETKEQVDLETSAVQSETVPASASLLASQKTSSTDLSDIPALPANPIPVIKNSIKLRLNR

(His)6-PABPN1 (mouse) = (His)6-PABPN1 (mouse) (UniProt O35445)

B1: GST-TTP@95-158 (domain or fragment, mouse, UniProt P22893 95-158, looked up)
chain: RYKTELCRTYSESGRCRYGAKCQFAHGLGELRQANRHPKYKTELCHKFYLQGRCPYGSRCHFIH
notes: also called TZF construct; TZF domain; source: E. coli STBL2 or Rosetta(DE3)pLacI, purified (glutathione-agarose); not shown: GST, N-terminal, kept
binding result (hexahistidine-PAP-myc): binds

B2: GST-TTP@95-158(F118N) (domain or fragment, mouse, UniProt P22893 95-158, looked up)
chain: RYKTELCRTYSESGRCRYGAKCQNAHGLGELRQANRHPKYKTELCHKFYLQGRCPYGSRCHFIH
notes: source: E. coli STBL2 or Rosetta(DE3)pLacI, purified (glutathione-agarose); not shown: GST, N-terminal, kept
binding result (hexahistidine-PAP-myc): binds

B4: N-terminally glutathione S-transferase-tagged wild-type TTP (natural protein, mouse, UniProt P22893 2-319, looked up)
chain: DLSAIYESLQSMSHDLSSDHGGTESLGGLWNINSDSIPSGVTSRLTGRSTSLVEGRSCGWVPPPPGFAPLAPRPGPELSPSPTSPTATPTTSSRYKTELCRTYSESGRCRYGAKCQFAHGLGELRQANRHPKYKTELCHKFYLQGRCPYGSRCHFIHNPTEDLALPGQPHVLRQSISFSGLPSGRRSSPPPPGFSGPSLSSCSFSPSSSPPPPGDLPLSPSAFSAAPGTPVTRRDPNQACCPSCRRSTTPSTIWGPLGGLARSPSAHSLGSDPDDYASSGSSLGGSDSPVFEAGVFGPPQTPAPPRRLPIFNRISVSE
notes: also called WT GST-TTP; GST-TTP; source: E. coli STBL2 or Rosetta(DE3)pLacI, purified (glutathione-agarose); not shown: GST, N-terminal, kept
in vitro polyadenylation of TNFα-ARE A20 RNA by (His)6-PAP-myc with (His)6-PABPN1: reduction of the processive addition of adenosines by GST-TTP at 2 and 5 min ((His)6-PABPN1 (mouse)): 45%
binding result (hexahistidine-PAP-myc): binds
amount of TTP pulled down with (His)6-PAP-myc present, against TTP alone [1]: 80%

The remaining lines, values ahead:

fold change of PAP pulled down with GST-TTP present, against PAP alone [1]: 4 fold
Molecule: hexahistidine-PAP-myc (from UniProt Q61183-1 1-739) (enzyme)

binding result (hexahistidine-PAP-myc): binds
B3: GST-TTP@2-186 (domain or fragment, mouse, UniProt P22893 2-186, looked up)
chain: DLSAIYESLQSMSHDLSSDHGGTESLGGLWNINSDSIPSGVTSRLTGRSTSLVEGRSCGWVPPPPGFAPLAPRPGPELSPSPTSPTATPTTSSRYKTELCRTYSESGRCRYGAKCQFAHGLGELRQANRHPKYKTELCHKFYLQGRCPYGSRCHFIHNPTEDLALPGQPHVLRQSISFSGLPSGR
notes: as for B2

binding result (hexahistidine-PAP-myc): binds
B5: GST-TTP@2-319(F118N) (natural protein, mouse, UniProt P22893 2-319, looked up)
chain: DLSAIYESLQSMSHDLSSDHGGTESLGGLWNINSDSIPSGVTSRLTGRSTSLVEGRSCGWVPPPPGFAPLAPRPGPELSPSPTSPTATPTTSSRYKTELCRTYSESGRCRYGAKCQNAHGLGELRQANRHPKYKTELCHKFYLQGRCPYGSRCHFIHNPTEDLALPGQPHVLRQSISFSGLPSGRRSSPPPPGFSGPSLSSCSFSPSSSPPPPGDLPLSPSAFSAAPGTPVTRRDPNQACCPSCRRSTTPSTIWGPLGGLARSPSAHSLGSDPDDYASSGSSLGGSDSPVFEAGVFGPPQTPAPPRRLPIFNRISVSE
notes: as for B2

binding result (hexahistidine-PAP-myc): binds
B6: GST-TTPΔ95–158 (natural protein, mouse, UniProt P22893 2-319, looked up)
chain: DLSAIYESLQSMSHDLSSDHGGTESLGGLWNINSDSIPSGVTSRLTGRSTSLVEGRSCGWVPPPPGFAPLAPRPGPELSPSPTSPTATPTTSSNPTEDLALPGQPHVLRQSISFSGLPSGRRSSPPPPGFSGPSLSSCSFSPSSSPPPPGDLPLSPSAFSAAPGTPVTRRDPNQACCPSCRRSTTPSTIWGPLGGLARSPSAHSLGSDPDDYASSGSSLGGSDSPVFEAGVFGPPQTPAPPRRLPIFNRISVSE
notes: also called TZF domain-deleted TTP mutant; source: E. coli STBL2 or Rosetta(DE3)pLacI, purified (glutathione-agarose); not shown: GST, N-terminal, kept

Reference: PMC3406032, “Tristetraprolin Inhibits Poly(A)-Tail Synthesis in Nuclear mRNA that Contains AU-Rich Elements by Interacting with Poly(A)-Binding Protein Nuclear 1” (PLoS ONE, 2012)
